A word on the Ki: it is a measure of affinity in units of concentration, obtained from inhibition or displacement. A low value points to higher affinity. One may read the Km as the substrate concentration at which the rate is half of its maximum. The kcat is the number of substrate molecules converted per active site and unit of time at saturation.

2 molecules from paper doi:10.1101/2022.07.22.501097v1 (biorxiv, 2022) can be followed below.

The target in one series is T1, BglC (Thermobifida fusca, UniProt Q9LAV5).
T1 sequence (Q9LAV5 1-484): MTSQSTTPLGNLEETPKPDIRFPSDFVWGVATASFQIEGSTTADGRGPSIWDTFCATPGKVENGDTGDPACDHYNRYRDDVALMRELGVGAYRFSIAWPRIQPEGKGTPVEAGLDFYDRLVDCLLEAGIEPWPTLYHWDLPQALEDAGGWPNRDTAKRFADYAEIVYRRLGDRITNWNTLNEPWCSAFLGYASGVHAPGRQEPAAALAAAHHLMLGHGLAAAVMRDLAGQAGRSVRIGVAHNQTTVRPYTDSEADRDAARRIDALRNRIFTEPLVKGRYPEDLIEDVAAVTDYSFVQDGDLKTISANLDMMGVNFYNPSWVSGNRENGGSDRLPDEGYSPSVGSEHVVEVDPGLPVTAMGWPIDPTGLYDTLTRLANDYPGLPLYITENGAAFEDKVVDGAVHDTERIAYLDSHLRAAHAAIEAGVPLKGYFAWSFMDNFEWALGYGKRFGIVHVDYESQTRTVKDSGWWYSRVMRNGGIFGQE
The series is described as follows: 4-nitrophenol release at […] nm, continuous plate assay, non-linear regression. The class given is biochemical.

Substrate in the series “purified protein”: O=[N+]([O-])c1ccc(O[C@@H]2O[C@H](CO)[C@@H](O)[C@H](O)[C@H]2O)cc1
Briefly: purified protein. The settings on record: 100 mM sodium phosphate pH 7.0, 37 °C, 2.63 nM enzyme.

In turn, `O=C1O[C@H](CO)[C@@H](O)[C@H](O)[C@H]1O` [D-glucono-δ-lactone] showed a Ki on BglC of 6.63 ± 1.3 µM.

B1: BglC (Thermobifida fusca) (protein)
chain: T1 sequence (Q9LAV5 1-484)
For B1, in the series “purified protein”, the Km was determined as 560 ± 10 µM and the kcat was 48.68 s⁻¹.
